Measured values as given in the NTF2 design screens of Basanta et al. (2020).

Assay: protease stability score; higher = more stable; yeast display proteolysis, trypsin and chymotrypsin;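 further: relative to predicted unfolded state with 0 unfolded-like and 1 meaning tenfold more protease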

Sequence | protease stability score
SEEEKWTEIAFTLWREVVETGDEHDVQEMADPNARYKQGDKEYHGREHLLEFMVKFFRHARVDDDDHKHVRTINGRVELQMRSEVTINGKLLITDVELIIVKVNGRWVVESLILG | 1.43
SEEEKYARKAIELMKHNYETGDFEKLSRLMDPHVRLHIGDKSHHGMDEFVHWVSQFDHMEMNVHDVRVQGDKIEIIGHLVVRIDGRERRTETYIHLHKFDGQWIVHTIEVR | 1.34
SEEEKYFEHWLKILLQNMHTGNEENLKRLADPTYRLHIGDKNFIGREMFLDSMRRIDHFDDAKLKSIETYGDYVHAEIDHDGRVDGRKIRVNTILLTLKVDGRWIVHSFKIE | 0.827
SEEENEAKSWLEYVIRLLETGDEDSLRKLMDPHVRLIQGDKEFHGRELVTDIISEHIRKVKNVRIRIDDIKFIGEKVYLHGTLEYGDKKHELHLITDKVNGRWLLRSIELR | 2.56
SEEENILEEMLKIFYESSRTGNEKTMQELFDPHARIEFEGVENIGMELAMRLTTHWRLQTVHIKDVRVIDGQIHMDGEERGVINGQEIRTEVDIISIKIDGRWLFHSKQIN | 0.369
SEEENISKHLADLMFRAIFTGDWQELSRLLDPNARLRVDGVIHHGRETSVEFLERMFRTLGIDHYRVRHVNVQGEKVDIHSEVEYDGRKIDTKIHLVVVNGKVKSVDVRVD | 1.97
SEEEQDIKHFLELIERTHHTGDEKLFRDLFDPNVRLHVGDKNMHGREKALERWRLLGYEIKHLRWRDFRIFDGRVTAHGEMEGQVNGQKIKRDVEIVLVKIDGQWFIEEERVR | 1.57
SEEEQEAIENLHQYIEAIKTGDEDKLRDLFDPNAIIHFDGREIHGRHVFLKKLRHLWLDLKHFHIQHVEPYNGRVEIHGFQHTSVDIDGVRSRRDEHVLIEIIKINGKWKIKRIEWI | 1.68
SEEEQEFRLILKEHLDKLETGDEDDLHRLMDPNVRIEIGDKEMHGREHATRFFRELRVEHVHLESYELQGEKVNLHGRMIGDINGKKVDRTVHIFLLKVNGRWIIHSWEVV | 2.14
SEEEQELYRTAKLMLESMTTGNEELNKRLADPNVRIHWNGVENHGWRIFRENLEELRIHLKDWRFRRFDLYNGVALLDIEVQIDIEIGDKRIEYETQTILLLFVVNGRIKSISMRIL | 1.07
SEEEQFFRLALELFRQVLQTGDEDRLRELVDPNAKHIINGVELHGRSVLEEFLKRYKNLRIHDVEIKDIRVFDGKLELHGIEDGIIGDKRDERRWHLISEKVDGRWIMHEIQID | 1.7
SEEEQHAKHMSHLISHVLKTGDEERWKELMDPHTRLIVGDKEFHGREALHELKRRVDHMKDVLIHSVEVQGNKADFDVEVHVKVDGRHERLKMRWIVDKVNGRWVQSEIIIH | 1.65
SEEEQHFRELLHHILENMYTGDWRSLEKNADPHARLFYYQGDKYELYIGMHEWRRLLHHMHERFRNARFQIDEWHVQGDYFKIVESLDYGDKHIDIRVHIQYVNGRLKEMHIHIH | 1.24
SEEEQHLEKMAEDLLHFILTGDEEAMRKMADPTVRLHLHIGDKEERYHGRRDVVRWFHEWVKKVKGMTIEIKRVKVFDGRIFVDGILEINGVKVRVHLITDVIDGKLTRTEERIE | 1.49
SEEEQKLRNMAKLTFKDLITGDEEHFEKLADPHTRFNVGNYERHGMRLHLEWYLEWLTRIKGLKLRLELHDVRVVDGRAISDTTLDVHIGDKHIHQDIKLLLVIVDGRIKELEIRFV | 1.22
SEEEQLALEIARRLVRSILTGDEHEIHRLMDPHVRTNWNGQELVGREEWDRFNHEMRIHELRIREFDVEVFNGRVESRFRTETRMTFDGREVNEETKLIVILDKVDGKWHLRHVEFRIH | 0.651
SEEEQLIRLALEWELHSEETGDEELVRENADPHVRLEINGVEVIGMELAVKILFELKEDMGIKHIELKSVDTQGDKLNIHSKYHVNGRHIDVIIISKKVNGRWRMKRIIVTIR | 2.46
SEEEQLVQSAIEITVEALQTGDEHKIREMLDPHVKVRINGQDTHGWEVMEVFMKELGIKHIRVHIEHVNVQGEKVEVKGRVIINFNGRHYEREHWIIIFKIDGRWVNDSIEYI | 2.12
SEEEQRKEDFLRWFHKALLTGDEEVLLKMADPNVRADINGVDIHGWKEFRQTTHDLRREIRIRDFEVKDEKLVGDKLHVDSSVDGEFDGRRHELKTHLIFLKVDGKWFFKEIRIK | 1.34
SEEEQRQHEFMILWLEYFRTGNEEELLELIDPNVLLVMDINGRNELNHGRELWHEFMNRFWEKIKNATFIVHDKRVINGRIHMDGRLDINGREYTVHLHIEVINGVTKRFEIRIR | 1.68
SEEEQSARKVIEDLIRDLVTGDEKSLRRLMDPHVRFDIGDKELIGREEVLEFWRHIRIHDIKLEDVRLIDGRATVEGKLNGEINGVHHRLDEHIFIYKVDGRWVVHEIRII | 1.53
SEEERATEYVLSMLLHLLRTGDEDALFEMADPRYRFIYGEKEKVGRHVIHEFITHLRIDDFRLRRLEIQGDKIITDGEMYGTINGQHETRRVILIMRKINGRWFLESIEIR | 1.7
SEEERDAEENIRLYEELWRTGDFDIFKHLADPNVRLHINGRDVHGRENVSRLISEWRDEDIILRHFTVIDGRIEVHSEFHGQVDGQRRNTRIHIHLRKINGQWRLTEVKYE | 1.12
SEEERDAHEAWRLILETNLTGDEDFSANLMDPDVRITINGRHLHGRELVLRFLNEWRIEFHRVEIKDYEVQGDYVIIIGHMDGILKVDGKEIRFTSDVSIISVKVNGRWLIREIHIK | 2.7
SEEERDAKEAVHLLLDMIDTGDFERITKYMDPNTRSRVGDKNDHGRHWLRHRRRHAGHDNIHVHLTRVDIFDGVVQINGRLDVDGKEIEVHWFIRKINGRWIVEEVHIQ | 0.367

Sequence | protease stability score
SEEERDARIAIEIMLRLLHTGDEESMHQLADPDVRSDVGDKELHGWKLFVDVITEMGIDHVELEHLHTQGDKVHIHVRSFFNGREYLVNLHVRKVDGKWYVEEMKISHH | 2.45
SEEERDIRHSIEMLFYYFETGDWREWERLADPRARLIIGEKEHHGREELSRSLKELLDRLGVDHYEIKDKRSEIIDGRVNLHVRGHLHVNGRNQHVIVIMVAIKIDGRWLLESLEIRLH | 1.3
SEEERDLKEEADRFLDHVRTGDEDTLRDLIDPNVKLRVDQGDKDIELHGREEVIKFLVHMRIHHVKLNNFRIQGNKIIHDIRVDGTINGVRRDRREHLILHIVDGKIKIVEIRVE | 1.28
SEEERDLREALEEHKRTLQTGDEELWNKLFDPHARSDINGVEFHGMEDISRHIYKFFIDFGFKHVRFKHVELYGDKLVMRGSLNINGVDLDIEIISRKIDGRWLIHHWIIR | 0.859
SEEERDMKEWLRLHVEALRTGDEHHLRHLMDPHTRIQVGDKEIHGMDEIARHVREIRQHVEIRVHHVEIIGDKIIMDVELRLIVHFDGKTFDIKTRFLLHIWKVNGRWILKSVHIE | 1.21
SEEERDTIEFARLWLENYLTGDEETMKELADPRTLSTFRFENHHLHLHGMHLHFTWLHQIRIRHFQPREVSVVNGKTTIDGEYHGEVGDKSHTTRVIIRLEIVNGKIKSVEIEVK | 1.07
SEEERDVKEVLKLIFEHFLTGDWDWLSEMMDPHARSDINGVERHGRDDLKEMYEAIIRKLGADHIRVDTVRVDLFDGRLIVEIHTRNHVGDKEFRVINIFIMRKINGRWHVESVLLHIE | 1.56
SEEERDVRHVFEVFERSMNTGDEKKIEDRLDPNVRIIIGDKRVHGMHWVSKVIVEMRTHFILRRIRIIGDKADIDGELELRAEGHHIHTHVIIVVHKINGRWYIEEIEIR | 1.69
SEEEREAQTFYEEWRENFRTGDFDRLHELMDPNARIHQGDKLIIGRQLLEHWRHRFKNIRVDFDLKHIEVQGEKIILRLHFEISIDGRTEHYDMIMIVHKVDGVWIVKSFTIK | 1.43
SEEEREDEEMFRKLWEAYKTGDEKTLSELVDPNARLRFENREFVGRESIKEFYRRIREKFKGIRIEDVHLRDRKEQGEFIHIDIEINRFVGDKYENVKVEIVLLKFDGRWIIHEIRIK | 2.69
SEEEREIREIMKRFVQSFYTGDEHSLKKLLDPNVRHEFNGKEEHGWHRVWEDLAFFLRHIRIKHVVLRDVRVQGDKVHAHVEIHEEWDGRERDVEVHMRLEIVDGVVKSVKIEIQ | 1.43
SEEERESEEFWKHLRDVTRTGDFDSLSKLVDPEVRLEWNGRHFIGREHLAELVIDMLNRIDHVELRLHSYRLQGNYLHLRTILIIRINGQQITHDTRITFIKVDGRWIIESKHVH | 0.869
SEEERESKEATKLHLDALRTGNEELLRHLFDPDVKVDVNGKHLHGWKLLTEVLQRMGVKHVELTDFRVYDGRIDLREKWDVDGKEIEVFIHARKFNGQWHTESIHIK | 1.15
SEEERETKLMDEIYQRLFKTGDEHKFLRLADPHAKFHFDGREDHGMHNSTRIWKKLNDILGLDNIRFHVRDWTVFDGVAHVDGKLVINGKEIEVKLHVVVVNGRVKSVSIEHE | 0.924
SEEERETRKIFEDLLKTMETGDWRHLHRLIDPNARLIVNGQEFHGREDLIRLLEQLRIRSMRITDVRNQGNKSHVDGTVEGEWNGRTDNNRTEVHLVVVDGVLKHVEFHLH | 1.47
SEEERFVEEMLRHFLTNFLTGDWDKVAKLADPDTRSLIGDKHSHGRERVIDVLTYVVEEWRWKEFRVHRTTSIGEKAHSDTETDGNYNGVDVRSRSYIHFEVVNGRMSQIHLIFV | 0.694
SEEERHIKEFTRRLLHVFITGDEHELKELFDPNTRSIFNGVDVHGWKEITRFIREIREKEVRIRDVKVFNGRVHLEGHSNMEWNGQERRSDVEMHFDVINGQVHEIEIRIR | 1.17
SEEERHSREMMKLYYKFLETGDEEKFLSLADPDVRIVFNGRDYHGWKDMEKLFHRLLKELGVDHFHIEHVRIDIIDGVAFAFFEVSYNIDGKSLHMHYRFYVKKIDGKWHVRWIHLEVK | 1.59
SEEERHWKEFIRMMFEALKTGDETELEKNIDPNVRVHINGQELHGRETASRFMQKHEEDMGFKHFHIDHIHFQGDKIHVHGILWVNGRDIEIHIHLVIVNGRVSLVSRDIREH | 0.247
SEEERILEEILRRLLRLLATGDWEDLHKLFDPTVRIVFNGQLLHGWHEFIRTMHQLWVDRIRVERVRFQGDFQHYETRNDITINGVRIETESRVHVKIVDGRIKYFEFELT | 2.53
SEEERIMEEVSNLILDILYTGDWRRFLKLADPRTRSEINGVELIGMENHFKMWEHWRIKHIDMHSHESQGDKAIAHTRHRGEINGRERDVDTNLFVLVVNGRLKQIRLEFV | 1.25
SEEERLAEHYYRETIELITTGDWRKLLELFDPDARLVIGDKTYHGMDTIIKIWEELRMHIRDVHFHHVSVIDGRIHLDVVVDVTKNIDGVRIRTTHRVHIIMEKIDGKWFVREIRIK | 2.38
SEEERLAREISKELVEILLTGDEDRLLELADPDVRHILLFNGRDDDQHGRENMSRAEKLFREWLGVKHVDVTHVEVQGDKIHNDTVVDINGVRFEFRIIWVVVNGRVKVWRVEMR | 1.52
SEEERLARVFVELLLEISKTGDERMWKWLADPHYRLIIDGVRFHGRETLEREFKRFDYIHDVRLNDMIINGEHLILDVRVHGQQGDKEINIRTFLVVLKVDGVWVLKSVHIH | 1.49
SEEERLIIEVMKDFEHSHRTGDWRRILKNLDPNTRHEFNGVEFHGMEEVVRFWIELKDEIRIHHIEIESINHVGDKAHMNVRRDTEVNGKREDVRVQVDLRVINGRIKSVIIRIE | 0.844
